Measurements taken from patent US20050026234A1.

Key:
[1] = target: PKC substrate sequence … of CKAR, phosphorylated by PKC at the phosphoacceptor threonine; test: cell-based or functional assay
[2] = target: modified kemptide LRRASLP of C4kY2.1, phosphorylated by PKA at serine 475; test: cell-based or functional assay

| absolute amount of FRET of purified CKAR after phosphorylation by PKC βII (38% before), estimated from emission spectra [1] | FRET efficiency of phosphorylated C4kY2.1, calculated after trypsin treatment (nonphosphorylated: 30%) [2] | change in the emission ratio 535 nm/480 nm in cells pretreated with 10 µM H-89, then 1 mM dbcAMP [2] | emission ratio of 526 nm and 476 nm of the purified PKA-phosphorylated chimera before dephosphorylation by PP1 (1.14 after) [2] | increase in the 535 nm/480 nm ratio in COS-7 cells treated with FsK and with dbcAMP [2] | ratio of the emission at 526 nm and 476 nm of purified C4kY2.1 after phosphorylation by PKA catalytic subunit (1.09 before) [2] | Substance |
| --- | --- | --- | --- | --- | --- | --- |
| 34% |  |  |  |  |  | FHA2 phosphothreonine binding domain from the yeast checkpoint protein rad53p, as the binding domain of CKAR (from UniProt P22216 601-681) |
|  | 20% | 46% | 1.39 | 5% | 1.42 | 14-3-3τ (1-232), the phosphoaminoacid binding domain of the chimeric PKA reporter protein C4kY2.1 |
